In general, Km refers to the substrate concentration at which the rate is half of its maximum.

The values below come from publication PMC12694110, “A Multidrug and Toxic Compound Extrusion Transporter, RgMATE6, Facilitates Vacuolar Transport of Acteoside in Rehmannia glutinosa” (Plants, 2025).

Substrate in data set [1]: C[C@@H]1O[C@@H](O[C@@H]2[C@@H](O)[C@H](OCCc3ccc(O)c(O)c3)O[C@H](CO)[C@H]2OC(=O)/C=C/c2ccc(O)c(O)c2)[C@H](O)[C@H](O)[C@H]1O
Put plainly: uptake into vacuolar membrane vesicles, HPLC, Lineweaver-Burk. Particulars: vesicles from transfected N. benthamiana protoplasts, 25 mM Tris-MES pH 8.0, 0.4 M sorbitol, 0.1% BSA, 25 °C, 20 min, substrate 20–120 μM. The class given is biochemical, Rehmannia glutinosa.

Substrate in data set [2]: C[C@@H]1O[C@@H](O[C@@H]2[C@@H](O)[C@H](OCCc3ccc(O)c(O)c3)O[C@H](COC(=O)/C=C/c3ccc(O)c(O)c3)[C@H]2O)[C@H](O)[C@H](O)[C@H]1O
The description is as above. It counts as biochemical, Rehmannia glutinosa. Conditions: vesicles from transfected N. benthamiana protoplasts, 25 mM Tris-MES pH 8.0, 0.4 M sorbitol, 0.1% BSA, 25 °C, 20 min, substrate 20–120 μM.

B1: RgMATE6 (Rehmannia glutinosa) (protein)
chain: MEDNSKQPLLSYEEEEEEDQVPDLVSVPSRFSFQRLSNFSFFSSFVADDEDIAPIETFSEFMSAFKDESGKLWFLAGPAIFTSLCQYSLGAFTQTFAGHVGTLELAAFSSVIAGLSLGVMLGMGSAVETLCGQAFGAGQHDMLGIYLQRSWIILLATGFILMFLYIFALPFLLVIGQTESISRVAGKLALWMIPQLFAYALNFPTAKFLQAQSKIMAMAWISAAGLGLHVLFSWLLMLKLGWGMAGGAAVLDGSWWFIVIAQLIYIFSGTCGKAWPGFSLRAFSNLWGFVRLSVASAVMMCLETWYFMALVLFAGYLKDAEVAVAALSVCTNILGWTNTIAVGFNAAISVRVSNELGASRPRTAKFSVVVMVISAFLIGLIVSILLLIFQDQYPSLFSDSLDVKQVVYELTPLLAFSIVVNSIQPALSGVAIGAGWQALIAYVNIVCYYVFGVPLGLILGYPLNMGVKGIWYGMVAGTVLQTLILFWIVYRTDWNKEASIAAKRIKYWRGEAEAAKSKGLGEIK
notes: full-length ORF (524 residues, 12 TM helices), C-terminal GFP fusion (pBI121-RgMATE6-GFP), transiently expressed in Nicotiana benthamiana mesophyll protoplasts; vacuolar membrane vesicles
As for B1, the Michaelis-Menten constant (Km) in data set [1] turned out to be 35.59 µM; in data set [2], 121.98 µM.
